These results are taken from the supplement of paper PMC9112550, “Optimization of the antimicrobial peptide Bac7 by deep mutational scanning” (BMC Biology, 2022).

For this series, the system named is Escherichia coli TOP10. Nature of the series: shrunken log2 fold change of peptide-encoding DNA abundance (4.5 h post-induction vs induction); higher = less antimicrobial activity (less host growth inhibition). To be noted: time post-induction: 4.5 h; library: site-saturation at positions 5, 18, 19, 20.
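Note: peptides expressed intracellularly from a pBAD plasmid library in pooled LB shake-flask culture, induced with 0.3% L-arabinose, DNA abundance read by NGS, three biological replicates, DESeq2 with apeglm shrinkage.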

In the case of RRIRNRPPRLPRPRPRPAHPPRP, the “shrunken log2 fold change” value stood at 0.307. Regarding RRIRARPPRLPRPRPRPLEWPRP, the “shrunken log2 fold change” value was -0.0062.

For RRIRSRPPRLPRPRPRPCLEPRP, the “shrunken log2 fold change” value is -0.0107. With RRIRVRPPRLPRPRPRPCWNPRP, the “shrunken log2 fold change” value was found to be 0.0501.

As for RRIRIRPPRLPRPRPRPKYYPRP, the “shrunken log2 fold change” value is -0.632. As to RRIRERPPRLPRPRPRPDRNPRP, the “shrunken log2 fold change” value was -0.25.

Turning to RRIRPRPPRLPRPRPRPGKFPRP, the “shrunken log2 fold change” value was -0.385. On to RRIRIRPPRLPRPRPRPTYIPRP, for which the “shrunken log2 fold change” value is -1.29.

RRIRIRPPRLPRPRPRPNANPRP: the “shrunken log2 fold change” value is -0.252.

Regarding RRIRTRPPRLPRPRPRPRFYPRP, the “shrunken log2 fold change” value was -0.367. Consider RRIRLRPPRLPRPRPRPKMWPRP, for which the “shrunken log2 fold change” value worked out at 0.485. As for RRIRSRPPRLPRPRPRPADGPRP, the figure is 0.218; as for RRIRKRPPRLPRPRPRPPAYPRP, 0.417; as for RRIRIRPPRLPRPRPRPHILPRP, -1. In the case of RRIRERPPRLPRPRPRPPYFPRP, the “shrunken log2 fold change” value was -0.441.

Regarding RRIRWRPPRLPRPRPRPGGQPRP, the “shrunken log2 fold change” value was -0.0831. Take RRIRDRPPRLPRPRPRPQQMPRP: the “shrunken log2 fold change” value is -0.0585. Turning to RRIRNRPPRLPRPRPRPWWFPRP, the “shrunken log2 fold change” value is -0.0934. For the sequence RRIRPRPPRLPRPRPRPWEMPRP, the “shrunken log2 fold change” value is -0.157.

Take RRIRVRPPRLPRPRPRPMYNPRP: the “shrunken log2 fold change” value was -0.315.

For the sequence RRIRGRPPRLPRPRPRPHKSPRP, the “shrunken log2 fold change” value came out at 0.277. As for RRIRIRPPRLPRPRPRPLPGPRP, the “shrunken log2 fold change” value was -0.0346.

Consider RRIRQRPPRLPRPRPRPKMSPRP, for which the “shrunken log2 fold change” value is -0.101.

As for RRIRKRPPRLPRPRPRPCARPRP, the “shrunken log2 fold change” value is -0.00716. As for RRIRNRPPRLPRPRPRPGVQPRP, the figure is 0.444; as for RRIRHRPPRLPRPRPRPQNKPRP, -0.654. Turning to RRIRHRPPRLPRPRPRPAWDPRP, the “shrunken log2 fold change” value is -0.0216. Consider RRIRDRPPRLPRPRPRPDLIPRP, for which the “shrunken log2 fold change” value amounted to 0.126. As for RRIRQRPPRLPRPRPRPCNLPRP, the figure is 0.0555; as for RRIRPRPPRLPRPRPRPVVWPRP, 0.535. With RRIRYRPPRLPRPRPRPHAYPRP the figure was -0.0226; with RRIRYRPPRLPRPRPRPWGFPRP, -0.167. For RRIRERPPRLPRPRPRPLHDPRP, the “shrunken log2 fold change” value was found to be 0.0501. Take RRIRKRPPRLPRPRPRPVSNPRP: the “shrunken log2 fold change” value is -0.212. On to RRIRFRPPRLPRPRPRPERHPRP, for which the “shrunken log2 fold change” value was -0.00647. With RRIRRRPPRLPRPRPRPVMPPRP the figure was 0.338; with RRIRNRPPRLPRPRPRPKRCPRP, 0.406. As for RRIRMRPPRLPRPRPRPKRRPRP, the “shrunken log2 fold change” value came out at 1.02. With RRIRKRPPRLPRPRPRPMPWPRP, the “shrunken log2 fold change” value amounted to 0.321. In the case of RRIRLRPPRLPRPRPRPPESPRP, the “shrunken log2 fold change” value was 0.367. On to RRIRGRPPRLPRPRPRPYQLPRP, for which the “shrunken log2 fold change” value stood at 0.147. For RRIRPRPPRLPRPRPRPCSWPRP, the “shrunken log2 fold change” value amounted to 0.0726. With RRIRSRPPRLPRPRPRPKFPPRP, the “shrunken log2 fold change” value is 0.0385. Regarding RRIRCRPPRLPRPRPRPPGVPRP, the “shrunken log2 fold change” value amounted to 0.158. RRIRHRPPRLPRPRPRPRLWPRP: the “shrunken log2 fold change” value was 0.63. With RRIRTRPPRLPRPRPRPSPTPRP the figure was 0.0477. Consider RRIRSRPPRLPRPRPRPVAAPRP, for which the “shrunken log2 fold change” value amounted to 0.432.

Take RRIRFRPPRLPRPRPRPASVPRP: the “shrunken log2 fold change” value is 0.344. As to RRIRARPPRLPRPRPRPSPEPRP, the “shrunken log2 fold change” value is 0.41.

In the case of RRIRNRPPRLPRPRPRPNARPRP, the “shrunken log2 fold change” value was determined as 0.0522. With RRIRYRPPRLPRPRPRPKEIPRP, the “shrunken log2 fold change” value is -0.0434. RRIRIRPPRLPRPRPRPRHTPRP: the “shrunken log2 fold change” value is -0.34.

RRIRARPPRLPRPRPRPFHIPRP: the “shrunken log2 fold change” value is -0.906. As to RRIRDRPPRLPRPRPRPNPLPRP, the “shrunken log2 fold change” value was found to be 1.05. As for RRIRIRPPRLPRPRPRPHCFPRP, the “shrunken log2 fold change” value was -0.824. Take RRIRQRPPRLPRPRPRPNPAPRP: the “shrunken log2 fold change” value is 0.17. As for RRIRTRPPRLPRPRPRPPEEPRP, the “shrunken log2 fold change” value was -0.00968. For RRIRIRPPRLPRPRPRPNGCPRP, the “shrunken log2 fold change” value was -0.0792. As to RRIRQRPPRLPRPRPRPPWSPRP, the “shrunken log2 fold change” value came to 0.223. On to RRIRERPPRLPRPRPRPHTFPRP, for which the “shrunken log2 fold change” value was -0.14.

Regarding RRIRARPPRLPRPRPRPENVPRP, the “shrunken log2 fold change” value was determined as 0.251. As for RRIRTRPPRLPRPRPRPVKGPRP, the figure is -0.0154; as for RRIRGRPPRLPRPRPRPMLRPRP, 0.117.

With RRIRYRPPRLPRPRPRPLSMPRP, the “shrunken log2 fold change” value was -0.036. In the case of RRIRSRPPRLPRPRPRPWQEPRP, the “shrunken log2 fold change” value amounted to 0.131.

In the case of RRIRMRPPRLPRPRPRPPMIPRP, the “shrunken log2 fold change” value was -0.0431.

RRIRGRPPRLPRPRPRPEGRPRP: the “shrunken log2 fold change” value stood at 1.39. As to RRIRRRPPRLPRPRPRPLTDPRP, the “shrunken log2 fold change” value was found to be 0.223. In the case of RRIRERPPRLPRPRPRPPKAPRP, the “shrunken log2 fold change” value was 0.312. Take RRIRSRPPRLPRPRPRPWNFPRP: the “shrunken log2 fold change” value was -0.0212.

Turning to RRIRTRPPRLPRPRPRPKYQPRP, the “shrunken log2 fold change” value is -0.68.

On to RRIRHRPPRLPRPRPRPGQRPRP, for which the “shrunken log2 fold change” value is 0.0218. In the case of RRIRERPPRLPRPRPRPVQDPRP, the “shrunken log2 fold change” value is -0.0228. As for RRIRHRPPRLPRPRPRPVDRPRP, the “shrunken log2 fold change” value is -0.0926. As to RRIRIRPPRLPRPRPRPCTYPRP, the “shrunken log2 fold change” value is -0.0592. Take RRIRCRPPRLPRPRPRPYLFPRP: the “shrunken log2 fold change” value was -1.19. On to RRIRLRPPRLPRPRPRPTKQPRP, for which the “shrunken log2 fold change” value stood at 0.103.

Turning to RRIRGRPPRLPRPRPRPTAEPRP, the “shrunken log2 fold change” value was 3.04.

On to RRIRCRPPRLPRPRPRPLRTPRP, for which the “shrunken log2 fold change” value amounted to 1.01.

Regarding RRIRCRPPRLPRPRPRPQWYPRP, the “shrunken log2 fold change” value was -0.321. Regarding RRIRNRPPRLPRPRPRPTHWPRP, the “shrunken log2 fold change” value amounted to 0.661.

Regarding RRIRGRPPRLPRPRPRPRVRPRP, the “shrunken log2 fold change” value stood at 0.789.

As to RRIRLRPPRLPRPRPRPMLKPRP, the “shrunken log2 fold change” value was -0.295. As for RRIRKRPPRLPRPRPRPQSGPRP, the figure is 0.149; as for RRIRPRPPRLPRPRPRPMYTPRP, -0.236; as for RRIRARPPRLPRPRPRPDVCPRP, -0.0214.

Regarding RRIRTRPPRLPRPRPRPWPQPRP, the “shrunken log2 fold change” value is 0.323. RRIRWRPPRLPRPRPRPDLHPRP: the “shrunken log2 fold change” value was determined as 0.243. Consider RRIRDRPPRLPRPRPRPQMQPRP, for which the “shrunken log2 fold change” value amounted to 0.135.

With RRIRLRPPRLPRPRPRPQFCPRP, the “shrunken log2 fold change” value was -0.137. Take RRIRLRPPRLPRPRPRPLKYPRP: the “shrunken log2 fold change” value was -0.0803. As for RRIRLRPPRLPRPRPRPHTHPRP, the “shrunken log2 fold change” value is -0.441. As for RRIRGRPPRLPRPRPRPPLDPRP, the figure is 0.989; as for RRIRFRPPRLPRPRPRPRACPRP, 0.165.

Regarding RRIRERPPRLPRPRPRPMFGPRP, the “shrunken log2 fold change” value was found to be 0.0215. For the sequence RRIRFRPPRLPRPRPRPHATPRP, the “shrunken log2 fold change” value was -0.0624. RRIRKRPPRLPRPRPRPNNGPRP: the “shrunken log2 fold change” value is -0.324. As to RRIRRRPPRLPRPRPRPFDWPRP, the “shrunken log2 fold change” value was 0.0636.

Regarding RRIRGRPPRLPRPRPRPKEVPRP, the “shrunken log2 fold change” value is 0.00437.

In the case of RRIRMRPPRLPRPRPRPKYLPRP, the “shrunken log2 fold change” value was -0.278. In the case of RRIRPRPPRLPRPRPRPVAPPRP, the “shrunken log2 fold change” value was found to be 0.411.

On to RRIRCRPPRLPRPRPRPDWHPRP, for which the “shrunken log2 fold change” value was -0.358. With RRIRNRPPRLPRPRPRPADEPRP the figure was -0.00151; with RRIRRRPPRLPRPRPRPMGAPRP, 0.658; with RRIRGRPPRLPRPRPRPTPRPRP, 1.16. As for RRIRNRPPRLPRPRPRPIDHPRP, the figure is -0.169; as for RRIRHRPPRLPRPRPRPAVYPRP, -0.0534; as for RRIRIRPPRLPRPRPRPMENPRP, 0.0119.

As for RRIRKRPPRLPRPRPRPHHCPRP, the “shrunken log2 fold change” value is 0.0484. As for RRIRVRPPRLPRPRPRPPNSPRP, the figure is 0.12; as for RRIRDRPPRLPRPRPRPFPAPRP, 0.0806. Consider RRIRVRPPRLPRPRPRPEDDPRP, for which the “shrunken log2 fold change” value is -0.17.

Take RRIRARPPRLPRPRPRPDWFPRP: the “shrunken log2 fold change” value turned out to be 0.408.

Take RRIRHRPPRLPRPRPRPLAIPRP: the “shrunken log2 fold change” value was -0.346. For the sequence RRIRARPPRLPRPRPRPSKCPRP, the “shrunken log2 fold change” value was -0.0295. For the sequence RRIRHRPPRLPRPRPRPSTKPRP, the “shrunken log2 fold change” value is -0.383. As for RRIRCRPPRLPRPRPRPHFMPRP, the figure is -0.774.

As for RRIRLRPPRLPRPRPRPDVGPRP, the “shrunken log2 fold change” value is -0.0266. RRIRNRPPRLPRPRPRPARRPRP: the “shrunken log2 fold change” value was found to be 0.294. As for RRIRVRPPRLPRPRPRPTMEPRP, the figure is -0.102; as for RRIRVRPPRLPRPRPRPHQPPRP, 0.0593; as for RRIRQRPPRLPRPRPRPIMSPRP, 0.0933. RRIRARPPRLPRPRPRPVQKPRP: the “shrunken log2 fold change” value turned out to be 0.198. On to RRIRYRPPRLPRPRPRPHKDPRP, for which the “shrunken log2 fold change” value was -0.428. On to RRIRARPPRLPRPRPRPYKKPRP, for which the “shrunken log2 fold change” value is -0.0244.
